According to patent publication US11078246B2, “Peptides binding to Bfl-1” (Dana-Farber Cancer Institute, Inc., priority 2015, dated 2021):

How the values were obtained:
Format in all cases: binding
[1] = target: T1, MCL-1 (Homo sapiens, UniProt Q07820); assay: SA pull-down from A375P lysates, MCL-1 western; details: A375P lysate, biotinylated peptides
T1 construct: we incubated A375P lysates with the corresponding biotinylated BIM SAHBs; endogenous in cells; host or cells: A375P melanoma cell lysate
Protocol: (§1) 293T cells were maintained in DMEM containing 10% FBS and penicillin/streptomycin, and transfections performed with 2 μg pCMV plasmid containing HA-BFL-1ΔC C4S/C19S using X-tremeGENE 9 (Roche). For lysate experiments, cells were trypsinized 24 hours post-transfection, washed with PBS, and lysed by incubation with 1% CHAPS lysis buffer (150 mM NaCl, 50 mM Tris pH 7.4, 100 mM DTT). Protein concentration of the soluble fraction was measured using a BCA kit according to manufacturer's instructions (Thermo Scientific). […] Samples were then boiled in LDS buffer and subjected to western analysis using 1:1000 dilutions of HA (Sigma-Aldrich. #12CA5) and biotin (Abcam, #53494) antibodies. To evaluate the capacity of biotinylated SAHBs to compete with tBID for interactions with BFL-1 and MCL-1, 293T cells were transfected with either HA-BFL-1ΔC C4S/C19S or FLAG-MCL-1 in the p3XFLAG-CMV-10 vector (Sigma) as above. After 24 h, cells were trypsinized, washed with PBS, lysed in 1% CHAPS buffer, and the supernatant collected for protein concentration determination by BCA kit. […] The mixtures were then subjected to HA or FLAG (Sigma-Aldrich, F7425) immunoprecipitation, followed by western analysis using 1:1000 dilutions of HA, FLAG, biotin, and BID (Santa Cruz sc-11423) antibodies. […] Cells were harvested and lysed as above, and incubated overnight with anti-HA agarose beads (Pierce). […]

[2] = target: T2, tBID/FLAG-MCL-1 (Homo sapiens, UniProt Q07820); assay: Competition with tBID in 293T lysates (FLAG immunoprecipitation); details: 5 μM biotinylated peptide, non-covalent
T2 construct: expressed in transfected cells; host or cells: 293T
T2 sequence (Q07820 whole entry): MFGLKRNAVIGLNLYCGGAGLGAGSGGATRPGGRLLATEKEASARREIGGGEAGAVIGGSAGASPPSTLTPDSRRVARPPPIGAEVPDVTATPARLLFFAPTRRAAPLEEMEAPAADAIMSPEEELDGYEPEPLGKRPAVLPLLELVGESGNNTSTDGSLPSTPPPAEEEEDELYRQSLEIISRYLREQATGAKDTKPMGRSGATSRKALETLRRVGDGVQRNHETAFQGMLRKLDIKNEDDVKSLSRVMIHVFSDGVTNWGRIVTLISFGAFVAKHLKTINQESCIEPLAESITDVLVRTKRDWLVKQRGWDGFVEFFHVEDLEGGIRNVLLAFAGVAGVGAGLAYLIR
Protocol: as §1

[3] = target: T3, tBID/HA-BFL-1ΔC C4S/C19S (Homo sapiens, UniProt Q16548, C19S/C4S); assay: Competition with tBID in 293T lysates (HA immunoprecipitation); details: 5 μM biotinylated peptide, 0.25 μM tBID, 6 h
T3 construct: cDNA encoding BFL-1ΔC (aa 1-153) was cloned into the pET19b expression vector; expressed in transfected cells; host or cells: 293T
T3 sequence (Q16548 1-153 C4S/C19S): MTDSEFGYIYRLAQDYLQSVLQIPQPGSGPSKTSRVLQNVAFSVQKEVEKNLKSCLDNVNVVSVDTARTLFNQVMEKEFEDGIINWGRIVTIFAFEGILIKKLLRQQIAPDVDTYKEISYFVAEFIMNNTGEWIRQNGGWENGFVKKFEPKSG
Protocol: Protein concentration of the soluble fraction was measured using a BCA kit according to manufacturer's instructions (Thermo Scientific). […] After 24 h, cells were trypsinized, washed with PBS, lysed in 1% CHAPS buffer, and the supernatant collected for protein concentration determination by BCA kit. […] Cells were harvested and lysed as above, and incubated overnight with anti-HA agarose beads (Pierce). The beads were washed 3 times with lysis buffer, eluted by boiling in LDS buffer, and subjected to western analysis with HA and biotin antibodies. […] Biotin capture was accomplished by incubating the mixture with high-capacity SA agarose (Thermo Scientific) for 2 h at 4° C., followed by centrifugation and washing the pelleted beads with 3×1 mL lysis buffer.

Substance: BIM SAHBA: stapled BIM BH3 peptide (aa 147-166) lacking the acrylamide-based warhead
- binding to MCL-1 [1]: equivalent binding
- competition with tBID for FLAG-MCL-1 [2]: equally effective
- competition with tBID for HA-BFL-1 binding [3]: incapable of competing with tBID
